The results in this text go back to patent US20200299413A1 (BIOMUNEX PHARMACEUTICALS, published 2020).

In this experiment the target is CD38 on RPMI-8226 multiple myeloma cells (UniProt P28907 1-300, limits assumed). The experiment in a line: cell-based or functional assay.

B1: parental anti-CD38 mAb (daratumumab) (antibody, V domains shown)
VH: EVQLLESGGGLVQPGGSLRLSCAVSGFTFNSFAMSWVRQAPGKGLEWVSAISGSGGGTYYADSVKGRFTISRDNSKNTLYLQMNSLRAEDTAVYFCAKDKILWFGEPVFDYWGQGTLVTVSS
VL: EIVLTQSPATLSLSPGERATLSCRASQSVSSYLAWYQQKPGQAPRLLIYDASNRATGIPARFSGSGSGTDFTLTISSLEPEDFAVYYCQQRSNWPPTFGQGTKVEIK
B1: the “ADCC (51Chromium release) EC50 on RPMI-8226 cells, non-pre-activated MNC effectors” value was found to be 0.3 nM.
